The text below walks through data of patent US20060193771A1.

Assay [1] addresses human CD30, native, expressed on cells (human). Kind of assay: competitive FACS on L540 cells, unlabeled MAb 2.5 µg/ml; competitor: biotin-T14.
Assay [2] shares this target. Briefly: competitive FACS on L540 cells, unlabeled MAb 2.5 µg/ml; competitor: biotin-T24.
Assay [3] shares this target. Kind of assay: competitive FACS on L540 cells, unlabeled MAb 2.5 µg/ml; competitor: biotin-T25.
For assay [4] the target is unchanged. Briefly: competitive FACS on L540 cells, unlabeled MAb 2.5 µg/ml; competitor: biotin-HRS-4.
Assay [5] deals with T1, recombinant soluble CD30 (sCD30) produced in E. coli (human).
T1 sequence: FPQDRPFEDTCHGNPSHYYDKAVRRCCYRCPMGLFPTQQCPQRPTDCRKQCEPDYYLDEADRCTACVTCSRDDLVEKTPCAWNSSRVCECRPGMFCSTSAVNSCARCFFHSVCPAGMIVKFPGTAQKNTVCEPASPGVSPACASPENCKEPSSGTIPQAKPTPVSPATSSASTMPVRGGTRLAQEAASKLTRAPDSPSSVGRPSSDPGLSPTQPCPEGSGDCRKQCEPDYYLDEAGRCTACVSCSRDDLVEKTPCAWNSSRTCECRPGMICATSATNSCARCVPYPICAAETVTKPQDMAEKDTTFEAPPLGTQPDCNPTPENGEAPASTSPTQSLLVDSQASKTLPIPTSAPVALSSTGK
Kind of assay: indirect ELISA, sCD30 coated.

The next assay has as its target T2, CD30-Fc (human).
T2 sequence: T1 sequence
Briefly: indirect ELISA, CD30-Fc coated.

In assay [6] the target is human CD30, native, expressed on cells (human). Briefly: competitive FACS on L540 cells, unlabeled MAb 2.5 µg/ml; competitor: biotin-HeFi-I.
Assay [7] has the same target. Briefly: FACS, L428 cells, MAb 5 µg/ml, control HeFi-I.
The target is the same in assay [8]. Kind of assay: FACS, L540 cells, MAb 5 µg/ml, control HeFi-I.
Assay [9] has the same target. Kind of assay: competitive FACS on L540 cells, unlabeled MAb 2.5 µg/ml; competitor: biotin-T6.
Assay [10] concerns the target transferrin receptor on L540 cells (UniProt P02786). Briefly: cell-based or functional assay.
Assay [11] has as its target human CD30, native, expressed on cells (human). Briefly: FACS, L428 cells, control HeFi-I.
For assay [12] the target is unchanged. Kind of assay: FACS, L540 cells, control HeFi-I.

Chain of HB21(scFv)-PE40 (P11439 278-638): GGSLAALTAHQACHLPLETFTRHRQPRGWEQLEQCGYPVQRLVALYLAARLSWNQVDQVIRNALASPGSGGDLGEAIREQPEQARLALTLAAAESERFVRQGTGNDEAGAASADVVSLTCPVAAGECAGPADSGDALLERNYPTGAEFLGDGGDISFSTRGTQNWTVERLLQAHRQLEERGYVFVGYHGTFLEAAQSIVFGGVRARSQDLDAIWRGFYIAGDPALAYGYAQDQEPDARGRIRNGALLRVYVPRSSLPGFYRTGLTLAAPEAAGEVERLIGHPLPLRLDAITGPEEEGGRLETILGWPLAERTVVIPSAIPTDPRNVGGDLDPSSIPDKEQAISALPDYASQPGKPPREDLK
Chain of transferrin receptor on L540 cells (P02786 whole entry): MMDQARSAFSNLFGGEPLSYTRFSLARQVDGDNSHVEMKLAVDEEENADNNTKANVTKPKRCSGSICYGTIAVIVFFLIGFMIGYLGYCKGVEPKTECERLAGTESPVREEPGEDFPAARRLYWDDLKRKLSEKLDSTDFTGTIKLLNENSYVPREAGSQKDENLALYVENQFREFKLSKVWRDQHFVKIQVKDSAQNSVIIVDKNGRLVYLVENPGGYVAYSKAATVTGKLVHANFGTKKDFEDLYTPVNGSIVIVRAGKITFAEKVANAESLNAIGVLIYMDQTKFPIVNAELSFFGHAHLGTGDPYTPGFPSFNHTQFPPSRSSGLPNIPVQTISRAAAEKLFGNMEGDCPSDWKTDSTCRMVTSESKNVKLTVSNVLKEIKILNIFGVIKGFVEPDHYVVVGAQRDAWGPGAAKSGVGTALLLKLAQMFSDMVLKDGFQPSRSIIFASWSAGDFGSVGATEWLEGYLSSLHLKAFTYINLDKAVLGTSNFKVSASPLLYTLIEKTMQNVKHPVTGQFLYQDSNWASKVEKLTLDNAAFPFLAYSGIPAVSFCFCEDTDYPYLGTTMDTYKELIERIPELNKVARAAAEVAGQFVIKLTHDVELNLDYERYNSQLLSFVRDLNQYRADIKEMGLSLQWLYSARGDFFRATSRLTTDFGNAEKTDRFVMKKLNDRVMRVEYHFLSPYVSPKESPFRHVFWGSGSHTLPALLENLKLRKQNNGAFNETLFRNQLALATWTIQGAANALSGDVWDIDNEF

Consider Ber-H2 MAb (antibody), for which the inhibition of the binding of biotin-MAb (%) is 108% in assay [1]; 18.2% in assay [2]; 23.3% in [3]; 80.3% in assay [4]; 0% in assay [6]; 75.6% in [9]. Besides, the titer in ELISA stood at 50 mL/µg in assay [5] and 75 mL/µg in the assay with CD30-Fc (human). In addition, the relative reactivity in FACS (% of control) was 160 % of control in assay [7] and 111 % of control in assay [8].
Regarding “HB21(scFv)-PE40 (from UniProt P11439 278-638)”, in [10], the IC50 (ng/ml) in cytotoxicity test, A431/CD25 cells was determined as 0.03 ng/mL; the IC50 (ng/ml) in cytotoxicity test, A431/CD30 cells was 0.02 ng/mL; the IC50 (ng/ml) in cytotoxicity test, HUT102W cells was determined as 1.5 ng/mL; the IC50 (ng/ml) in cytotoxicity test, SUDHL-1 cells stood at 0.05 ng/mL. The substance also had an IC50 (ng/ml) in cytotoxicity test, SUP-M2 cells in assay [10] of 0.02 ng/mL.
For the substance HRS-4 MAb (antibody), the inhibition of the binding of biotin-MAb (%) in assay [1] came to 108%; in assay [2], 3.9%; in [3] it was 25%; in assay [4], 82.6%; in assay [6] it was 0%; in assay [9] it was 87.4%. Also, in the assay with CD30-Fc (human), the titer in ELISA was 50 mL/µg.
control mouse IgG1 (antibody): the relative reactivity in FACS (% of control) in assay [11] is 16 % of control; in [12], 0.2 % of control.
